Measurements from the DeepSol protein solubility set.

Assay: soluble on expression in E. coli; label from the status in PepcDB or PDB records
For “MAQGFAVGFDPLGLGDLSSGSLSSLSSRGHLGSDSGSTATRYLLRKQQRLLNGPPRGIRASSPMGRVILINSPIEANSDESDIIHSVRVEKSPAGRLGFSVRGGSEHGLGIFVSKVEEGSSAERAGLCVGDKITEVNGLSLESTTMGSAVKVLTSSSRLHMMVRRMGRVPGIKFSKEKTTWVDVVNRRLVVEKCGSTPSDTSSEDGVRRIVHLYTTSDDFCLGFNIRGGKEFGLGIYVSKVDHGGLAEENGIKVGDQVLAANGVRFDDISHSQAVEVLKGQTHIMLTIKETGRYPAYKEMVSEYCWLDRLSNGVLQQLSPASESSSSVSSCASSAPYSSGSLPSDRMDICLGQEEPGSRGPGWGRADTAMQTEPDAGGRVETWCSVRPTVILRDTAIRSDGPHPGRRLDSALSESPKTALLLALSRPRPPITRSQSYLTLWEEKQQRKEKSGSPGEKGALQRSKTLMNLFFKGGRQGRLARDGRREAWTLDSGSLAKTYPRLDIEKEMGAT”, the “soluble on expression in E. coli” value was “soluble”. With “MLVSKSNGFNASAVLGSGSYNENKSSKHMELLAHSILKLICKEAASETYRGALETLQKMMSECIYQEGNAFVIMGAGEQLKRIKYEVGENNLKVFNVHFNNNHELVSSGEPDVICLSKQVWENLLIKLKLENNENVFSETKKLSNKNNADQFFECAKRNE” the “soluble on expression in E. coli” value was “not soluble”. For “MTTSTKLVELLYQLEAQLQKHELWQQTMPSPEALQSVEPFAIDTLDPHEWLQWIFIARMHALVESSQPLPRGFSIEPYFAEVWKQEPQYAELLNTIRTIDELCKLEHHHHHH”, the “soluble on expression in E. coli” value was “not soluble”. With “MGSDKIHHHHHHMLCAISGKVPRRPVLSPKSRTIFEKSLLEQYVKDTGNDPITNEPLSIEEIVEIVPSAQQASLTESTNSATLKANYSIPNLLTSLQNEWDAIMLENFKLRSTLDSLTKKLSTVMYERDAAKLVAAQLLMEKNEDSKDLPKSSQQAVAITREEFLQGLLQSSRDFVARGKLKAPKWPILKNLELLQAQNYSRNIKTFPYKELNKSMYYDKWVCMCRCEDGALHFTQLKDSKTITTITTPNPRTGGEHPAIISRGPCNRLLLLYPGNQITILDSKTNKVLREIEVDSANEIIYMYGHNEVNTEYFIWADNRGTIGFQSYEDDSQYIVHSAKSDVEYSSGVLHKDSLLLALYSPDGILDVYNLSSPDQASSRFPVDEEAKIKEVKFADNGYWMVVECDQTVVCFDLRKDVGTLAYPTYTIPEFKTGTVTYDIDDSGKNMIAYSNESNSLTIYKFDKKTKNWTKDEESALCLQSDTADFTDMDVVCGDGGIAAILKTNDSFNIVALTP” the “soluble on expression in E. coli” value was “not soluble”. In the case of “AHIVYDDVRDLKAIIQALLKLVDEALFDIKPEGIQLVAIDKAHISLIKIELPKEMFKEYDVPEEFKFGFNTQYMSKLLKAAKRKEEIIIDADSPEVVKLTLSGALNRVFNVNNIEVLPPEVPEVNLEFDIKATINASGLKNAIGEIAEVADTLLISGNEEKVVVKGEGENKVEVEFSKDTGSLADIEFNKESSSAYDVEYLNDIISLTKLSDYVKVAFADQKPMQLEFNMEGGGKVTYLLAPKLS”, the “soluble on expression in E. coli” value is reported as “soluble”. For “MYPIKYVENNLVFNQEGECFAYYELVPYNYSFLSPEQKYQVHDNFRQLIAQNREGKIHALQIATESSIRATQERSKKEITGRLKEVAKQRIDLQTDALVSMIGDSQIDYRFFIGFKLIATDEEVNLKSLKKSFLSGLQEFVYGVNHHLMGDFVSLSNEEIRRYTKLEKLMESKLARRFKVRRVTPSDLTYLIEHIYGEKGTPFEEYEFQLPKKKLKSETLVKRYDLLHPSRCLIEENPRYLRMEHENHESYVAYLTINTIVGEMEFPSSELFYYQQQQFTFPIDTSMNVEIVTNKKALATVRNKKKELKDLDNHAYQSDNETNSNVLDALDSVNELETTLDQSKESMYKLSYVVRVSAESVDELKRRCDEVFDFYDDTNVKLVRPFGDMMGLHEEFLPSSKRYMNDYIQYVTSDFLAGLGFGATQKLGELEGIYFGYNVDTGRNVYLKPALASQGVKGSVTNALAAAFLGSLGGGKSFSNNLLVYYAVLFGGQAVIVDPKGERGGWKENLPEIADEINILNLTSKPENQGLLDPYVIMKKKKDSESLAIDILTFLTGISSRDGEKFPVLRKAIRTVTQSDQRGLLQVINELRKENSPVAENIADHIESFTDYDFAHLLFSDGSITQSISLDKQLNIIQVADLVLPDAETTFEEYTTMELLSVSMLIVISTFALDFIHSNREIFKIVDLDEAWSFLQVAQGKTLSNKLVRAGRAMNAGVYFVTQNSDDLLDERLKNNIGLKFAFRSTDIHEIKKTLEFFGLDQEDESNQKRLRDLENGQCLMQDLYGRVGVVQVHPVFEELFHAFDTRPPVQERME”, the “soluble on expression in E. coli” value was “not soluble”. For “ARVDQTPQRITKETGESLTINCVVRDSRCVLSTGYWYRKPPGSRNEESISDGGRYVETVNRGSKSFSLRINDLTVKDSGTYRCKPESRYGSYDAVCAALNDQYGGGTVVTVNAAAHHHHHH”, the “soluble on expression in E. coli” value was “soluble”. In the case of “HQIGEDTYIVQGTMTLNDFNNYFDVELESDDVDTIAGYYLTGVGTIPTTEKLSYELVSQNKQFILTNDKVKNGRVTKVKVQITEVEIEEETE”, the “soluble on expression in E. coli” value is reported as “not soluble”. With “GETQPESAAFTAPSTDNPIRINFNENPLGMSPKAQAAARDAVVKANRYAKNEILMLGNKLAAHHQVEAPSILLTAGSSEGIRAAIEAYASLEAQLVIPELTYGDGEHFAKIAGMKVTKVKMLDNWAFDIEGLKAAVAAYSGPSIVYLVNPNNPTGTITPADVIEPWIASKPANTMFIVDEAYAEFVNDPRFRSISPMITQGAENIILLKTFSKIHAMAGMRVGYAVAHPTVIALMGRYVAGEKINFSGVDAALASMNDSAFITYSKKSNDVSRQILLKALEDLKLPYLPSEGNFVFHQLVVPLKDYQTHMADAGVLIGRAFPPADNWCRISLGTPQEMQWVADTMREFRKKSWI” the “soluble on expression in E. coli” value was “soluble”. For “MKFAVSSKGDQVSDTLKSKIQAYLLDFDMELDENEPEIVISVGGDGTLLYAFHRYSDRLDKTAFVGVHTGHLGFYADWVPHEIEKLVLAIAKTPYHTVEYPLLEVIVTYHENEREERYLALNECTIKSIEGSLVADVEIKGQLFETFRGDGLCLSTPSGSTAYNKALGGAIIHPSIRAIQLAEMASINNRVFRTVGSPLLLPSHHDCMIKPRNEVDFQVTIDHLTLLHKDVKSIRCQVASEKVRFARFRPFPFWKRVQDSFIGKGELEHHHHHH”, the “soluble on expression in E. coli” value was “soluble”. For “MGSDKIHHHHHHMIIELNKSNSENLTKTELEIIKFINENESILPELSIVEIAHETYSSPATVSRAIRKCGLNGFNELRYRLTVKDENDDIQNMGDIINKSFIEAQRVIEQISLTTLINIIKTINKSSKIYILARGLTEYVAKEFSLKLQLLDFNVVFINDPNIMKIKSKSIKKDELIIIFSLNGNTIELVESAQNANLVGAKVITCCCSESAKLIKYSDLYIVGYKHEHISISEYEVSSRLPLYIISRIIIDYMVRYNNSEN”, the “soluble on expression in E. coli” value was “not soluble”. With “MSLKLLAFDTSSTALSVAILEDDRLLADASLTIKKNHSISLMPTIDFLMKSVNLSPQDLDRIVVAEGPGSYTGLRVAVATAKTLAYTLTIDLVGVSSLAALALNSHHEGFIVPIMDARRNHVYVGFYENGRAAKADQYASLNAVLEQLKGRKQVTFVGEVTAFRQEINQTFPEAKVLEVLPSAFKIGQVGQKLTPVDVHAFVPKYLKKVEAEENWLKTHEDSGLSYVKRVEGHHHHHH” the “soluble on expression in E. coli” value was “not soluble”. For “MDLSSKPQQQLLNSLPIAGELTVTGEMGVCYKECLKNHAANLGGHALDGCGEFMPSPTATSTDPSSLRCAACGCHRNFHRRDPSENLNFLTAPPISSPSGTESPPSRHVSSPVPCSYYTSAPPHHVILSLSSGFPGPSDQDPTVVRSENSSRGAMRKRTRTKFTPEQKIKMRAFAEKAGWKINGCDEKSVREFCNEVGIERGVLKVWMHNNKYSLLNGKIREIEHGLCLNTHSNDGDGSSSS”, the “soluble on expression in E. coli” value was “soluble”. With “MTDMTYTIALMGNPNTGKSTLFNVLTGLRQHTGNWPGKTVTHAEGECRHRGTLYRIVDLPGTYSLYSNSADEEVARDFLLFQRPDVTIVVVDATALERNLNLALQVLEMTDRVIIAINLMDEAKKKGIHINTKKLAAKLGVPVVPISARNREGIDALLDTVDAMAHGRINTNPLSIRYSPEIERGIAKLLPLVKDVMGDTYPARWIALRLLDGDTSLLQALKQPPQPLIKEGNAYACCGSVKSV” the “soluble on expression in E. coli” value was “not soluble”. In the case of “MGSDKIHHHHHHMACVRDKPVSGPPTSLSAPHLRISLAFRGGLCPYSRARPEKDYAFKGNFVLRDLIANGQSMRTISLPRGRQRLHAMPTSTGYEVREDEIYDWDGRKRGQTPFTVLQHTISGTGRLRYENRNYRLQENDTLLVLVPHNHRYWLASDERWEYFWISMNGEEALRIHKSILSISGPVFRLKPATIDHLADCSLRLINGAASAGAASAIAYEAAMALYDDVFGSHAFAEKLSAMQPVIDHINANLDRPLPVADLVQISGLSRAHFSRCFAESEGLPPAEFVLQQRLQRAAKLLTKADFLPVKEVAILCGFEDANYFSKVFRRLYGTTPSQFRTTGMYANLRTPARRGVRVSDDET”, the “soluble on expression in E. coli” value is reported as “not soluble”. In the case of “EKQNEIQKKKARRHQLAMDYPEFISTFTLYLGAGMPARRAWFQIASVYRQQENTRYVYEEMVYTMREMQRGTPESECYEHFGMRCGLPVYRKFAVMLSQNLRKGTKGLAELLQREAAGAFEERKAAARKLGEETSTR”, the “soluble on expression in E. coli” value is reported as “not soluble”. For “MGSDKIHHHHHHMTNAVYTLIVRALSGIVSERAAETLLRAALREQGLTAEGVTAGEMQRVLSGPLLTRLSGVLPPERARAELGNLAAQLQKHYPKAPTLFSSPAATWDETTSTHWEDIDFSADDFEFDDPEYTATPPERQYALGTAAGQEALIQDLGRIPGVQGVMVCRASGEVLRERALSGSRNLSSVIAATALLFQKRALNLMSADMGGQTVCMRPVGAYCVAVVAGPQVNIGRLLAELQQVREAA”, the “soluble on expression in E. coli” value was “not soluble”. With “MGSDKIHHHHHHMVIENAMNIQFVLKDFSTFGGVERIQYNLAKKFKNDGHNVSFYILNGDSVALDTSHEFIIHKGSKSGFITFLFEIIKLRNNIYKNRIDVVIAAKEQANIAAFFATIFTKVSTIYTRHSALNVSEQRINERSVLLIYSLLTLSKGKVVTVSHDLKYSLLKSLPWGKDKIHVCPNPVLTESIYLKSLQPITDFKLPLSYICSVGRLTRTKGFDVLIQAYKQCITKELNFPDLVIAGSGEEYASLVKLTQELNVADKVHFLGHIDNPYVLMKNSSGFVLSSRNEGLPTVLIEAIALGTNVVSTDCLTGPREILDGGRIGKLVPVEDVRSLAEAMLTLPLHKLSESEIREMDRYSLEQSAIAYFKLFTKKSH” the “soluble on expression in E. coli” value was “not soluble”. In the case of “MRRKHDWLRETYRKSLEKIPERPVAHRTLSNIAPDPLYTPEDIGVLDPEYEEKRGFPGEFPYTRGVYGSMYRSKLWTMRMFAGFGTAEQTNERFKKLLKAGQTGLSVAFDLPTLMGYDSDHPLSKGEVGKCGVAVSSLADMEILFEGINLEEVTTSMTINSPANAIWAMYLAVAKKRGYDWKKLGGTIQNDILKEYIAQKEFIFPPEPSVKLVIDTFEWGPKNVPKWNFISVSGYHIREAGSTAVQELAWTLADGFEYVEAALKRGLDIDEFAPRISFFFDVHNDFFEEIAKFRAARRIWAKEMRYRYKAKNPQSWMLRTHAQTAGVSLTAQQPLNNIARVAIQALAAVLGGTNSLHTDAYDEALALPTEESATIALRTQQIIAYETGVTHTIDPLAGSYYVEWLTDEMERQAMEIIEEIRRMGGVVRAIEEGYFLRELAEASYRYQQEVERKERIIVGVNAFTDEIPLKVPIQLVDPEVERVQAERLARVRRERDPKRVEEALQGLRRAAVEGQNTMPHFVECALAYCTLGEMMDVLREVYGTYQEPAYV”, the “soluble on expression in E. coli” value is reported as “soluble”. In the case of “MLGENHALIYEFPDFADHIRHLKKNNTIFATMAQRYHELDHKIRALELTKVPTDDEHFVALKLERLHLKDKLYQYLVHDAI”, the “soluble on expression in E. coli” value is reported as “soluble”.
